This passage reports protein production results from a protein production outcome set (Wang et al. 2014).

This data set is described as follows: label from the status in PepcDB records.
As to “MSLIPKFREFDRERHRTDYQKGMSYAEQQDFDMGFTIWFDHIEDLDLIEKDGTINRIVMMSTGLKDKNVKEIYESDIVRNLYGELYVVEWLDGSFVLTEFYNGGYDHYIIDSSTEYEVLGNIYENPELLEDDNHASNEGHHHHHH”, the protein production result is “not failed”.

Turning to “MSLIYAQILAGGKGTRMGNVSMPKQFLPLNGKPIIVHTVEKFILNTRFDKILISSPKEWMNHAEDNIKKYISDDRIVVIEGGEDRNETIMNGIRFVEKTYGLTDDDIIVTHDAVRPFLTHRIIEENIDAALETGAVDTVIEALDTIVESSNHEVITDIPVRDHMYQGQTPQSFNMKKVFNHYQNLTPEKKQILTDACKICLLAGDDVKLVKGEIFNIKITTPYDLKVANAIIQERIANEGHHHHHH”, the protein production entry is “not failed”.

In the case of “MSLKAIGFEQPFKLSDGNLFKTFNLDIPEPKVHEILVKIQSISVNPVDTKQRLMDVSKAPRVLGFDAIGVVESVGNEVTMFNQGDIVYYSGSPDQNGSNAEYQLINERLVAKAPKNISAEQAVSLPLTGITAYETLFDVFGISRNRNENEGKTLLIINGAGGVGSIATQIAKAYGLRVITTASRNETIEWTKKMGADIVLNHKESLLNQFKTQGIELVDYVFCTFNTDMYYDDMIQLVKPRGHIATIVAFENDQDLNALKPKSLSFSHEFMFARPLNQTDDMIKHHEYLEDITNKVEQNIYQPTTTKVIEGLTTENIYQAHQILESNTMIGKLVINLNEGHHHHHH”, the protein production result was “not failed”.

For the sequence “MSLKARLALFFALSIGLALFFQGALSYVAFKGLLEADLDRSLLFYARALAEGRPSPRGEFAFRLAQGGAETKSPNFPDLPPLAPGRYWKEGWRVWVLEAPGGTLTVARYEPEALLALSRFRLVLFASGAALTLAFALLAGHLAGVALRPLSRLTEVARRVADSQDLSHRVPPEGGGELKTLAEAFNHMLERLEAFLEREKRFTRDAAHELRTPVAAALAQLEAAEGGYLSEGEALQATKEELLRMKRLVEALLVLAREGRVTPVPLDLAALAREEARAFGVPYRGPETLPYEGDPLLLAQALRNLLRNAFLHGEGKGVEVRLSQEGEDLVLEVKDEGPGMPEEALKEAGRPFFRASPKPGEGLGLSVAKKVAEAHGGALVLVPRKPTGLTARLLLPANPRLTGTP”, the protein production result is on record as “failed”.

As to “MSLKDMIDSIEQFAQTQADFPVYDCLGERRTYGQLKRDSDSIAAFIDSLALLAKSPVLVFGAQTYDMLATFVALTKSGHAYIPVDVHSAPERILAIIEIAKPSLIIAIEEFPLTIEGISLVSLSEIESAKLAEMPYERTHSVKGDDNYYIIFTSGTTGQPKGVQISHDNLLSFTNWMIEDAAFDVPKQPQMLAQPPYSFDLSVMYWAPTLALGGTLFALPKELVADFKQLFTTIAQLPVGIWTSTPSFADMAMLSDDFCQAKMPALTHFYFDGEELTVSTARKLFERFPSAKIINAYGPTEATVALSAIEITREMVDNYTRLPIGYPKPDSPTYIIDEDGKELSSGEQGEIIVTGPAVSKGYLNNPEKTAEAFFTFKGQPAYHTGDIGSLTEDNILLYGGRLDFQIKYAGYRIELEDVSQQLNQSPMVASAVAVPRYNKEHKVQNLLAYIVVKDGVKERFDRELELTKAIKASVKDHMMSYMMPSKFLYRDSLPLTPNGKIDIKTLINEVNNREGHHHHHH”, the protein production entry was “not failed”.

Turning to “MSLKIIAPTDKTITPSGTWSIGARAGDFVFIGGMHGTDRVTGKMVDGDEARIRRMFDNMLAAAEAAGATKADAVRLTVFVTDVAKYRPVVNKVQKDIWGDGPYPPRTVLQVPALDQGDIAEIDGTFYAPAEGHHHHHH”, the protein production result is “not failed”.

As to “MSLKKYQLVIVGYGGMGSYHVTLASAADNLEVHGVFDILAEKREAAAQKGLKIYESYEAVLADEKVDAVLIATPNDSHKELAISALEAGKHVVCEKPVTMTSEDLLAIMDVAKRVNKHFMAHQNRRWDEDFLIIKEMFEQKTIGEMFHLESRVHGANGIPGDWRHLKAHGGGMVLDWGVHLLDQLLFLVDSNVKSVSANLSFALGDEVDDGFVTFITFENGITAQIEVGTTNFIKLPRWYVKGTEGTGIIHDWDLSGEIVKPTALAKTSEPTPIKAGQGLTKTMAPPSEEATNTLSLPAPAKLAPSFYNNFVDVLNNTSEPIVQNEEVYQVLKLIEAIFEAAETNRTVHSIEGHHHHHH”, the protein production result is given as “not failed”.

In the case of “MSLKNKLQVKIPGKLYVAGEYAVVESGHTAILTAVNRYITLTLEDSERNELWIPHYENPVSWPIGGELKPDGEHWTFTAEAINIATTFLKSEGIELTPVKMVIETELIDQSGAKYGLGSSAAATVAVINALMTKFYPEISMLKKFKLAALSHLVVQGNGSCGDIASCMYGGWIAYTTFDQEWVKHRLAYKSLEWFMKEPWPMLQIETLEEPVPTFSVGWTGTPVSTGKLVSQIHAFKQEDSKNYQHFLTRNNEIMKQIIQAFHTKDEELLYSSIKENRRILQELGTKAGVNIETSLLKELADSAENMGGAGKSSGSGGGDCGIAFSKTKELAEKLVNEWEKLGIKHLPFHTGRVQITEGHHHHHH”, the protein production entry is “not failed”.

For “MSLKTNFVKYERKDNKDLCEITLENDAGMAVKVLNYGATLEKVLLDGENMILSLNSPEDYSKERNFLGGTVGRIAGRVRAGQWKHGNEIHQLPLNDGDNHIHGGIGTDMHVWDFRPSCDSEHARVDLTLFDPDGNNDYPGNLKLHARYELDNENNLHYLLEAVSDKLTIFNPVNHTYFNLGERAEDLNLQMNADYYLPVDEAGLPDRGMAEVAGTAFDFRKTKRIGDALNSDDSQIKLRNGLDHPFILNGNNPAALLSSNKHRLIVKTNAPALVLYAGNHFNHTGIVNNIGQYDGITFEAQCPPAEGNDLGQITLLPFEKFKRTVDWKFEEGHHHHHH”, the protein production result is “not failed”.

Consider “MSLKTTTSSTPSDRITWVRISSCYLPLATPISDAKVLTGRQKPMTEIAILFAEIETAGGHQGLGFSYSKRAGGPGQFAHAREIAPALIGEDPSDIAKLWDKLCWAGASAGRSGLSTQAIGAFDVALWDLKAKRAGLSLAKLLGSYRDSVRCYNTSGGFLHTPIDQLMVNASASIERGIGGIKLKVGQPDGALDIARVTAVRKHLGDAVPLMVDANQQWDRPTAQRMCRIFEPFNLVWIEEPLDAYDHEGHAALALQFDTPIATGEMLTSAAEHGDLIRHRAADYLMPDAPRVGGITPFLKIASLAEHAGLMLAPHFAMELHVHLAAAYPREPWVEHFEWLEPLFNERIEIRDGRMLVPTRPGLGLTLSGQVKAWTREEAQVGTRPEGHHHHHH”, for which the protein production entry is given as “not failed”.

On to “MSLLKIFYVILGFISLGLGLIGIILPILPTTPFLLLTAFCFVKGSDKFDKWFKGTKIYKNHLESFEKNRAMTLKTKLTILLTADIMLLFPLILSKSIHLKIFIVILMMFKFYYFIFRIKTVKAGDVVEQNR”, for which the protein production result was “failed”.

“MSLLNIKFTDNAVDYLKRREILDKILILITDDGGGKYSIQGGSCSMGAHFSIIWLDKVDPDYPVKIANEQNVKIYTSDFDKTMLGPNMVMDYNAGSLSLSSDEGLLDGSVDIGNGAALLKANKNVQMGINRQCEGHHHHHH”: the protein production result is “not failed”.

With “MSLLQQADRLHRQLLRTGPAQAPCWEPPVDMIETESAVLIYVALPGVAAGDVAVRFDPDGISISGVRPLPALRNARIHGLEIPYGRFQRRIRLPLHALEPEAPTLADGCLTLTLKKLREAPLEHHHHHH”, the protein production entry was “failed”.

On to “MSLNDNNTILGFDVNLICDFFLNTERQGPGSPEVTLKALSFIDNLTNKSLIADLGCGTGGQTMILAQHVPGKITGIDFFPGFIERFNKNAEKLNLQNRVKGIVGSMDDLSFEKDSLDLIWSEGAIYNIGFERGLKEWRNYLKPGGYLAVSESVWFTDQRPAEIHDFWMSAYTEIDTVPNKVAQIQKAGYIPVATFILPENCWIEHYFAPQAKAEEIFRRKHAGSRIVEELITSNHHEAELYSKYKAYYGYAFFICKKGFSLREGHHHHHH”, for which the protein production result was “not failed”.

Turning to “MSLPHLSSGEVASVLPLGKQLTQTPSAALFKEHRLEVMRMVLPAGKQVGSHSVAGPSTIQCLEGEVEIGVDGAQRRLHQGDLLYLGAGAAHDVNAITNTSLLVTVVLVDRGGS”, the protein production entry was “not failed”.

Consider “MSLPQSKVLTSFGTANRTPRAAETHPLTWRLRDDGQPVWLEEYQTKQGYDAVRKALGQMSPDEIVSTVKDAGLKGRGGAGFPTGVKWGLMPKDESMNIRYLLCNADEMEPNTWKDRLLMEQLPHLLIEGMIISAKALKAYRGYIFLRGEYVDAAINLRRAVEEAKAAGLLGKNILGSGFDFELFVHTGAGRYICGEETALINSLEGRRANPRAKPPFPAVSGVWGKPTCVNNVETLCNVPAIIGNGVAWYHTLALPGSEDHGTKLMGFSGKVNNPGVWELPFGITARELFEGYAGGMRSGYRLKAWQPGGAGTGFLLPEHLDAQMYTAGIGKVGTRMGTGLAMAVDDSISMVSLLRNMEEFFARESCGWCTPCRDGLPWSVKLLRSLERGEGQEGDLATLEQLCNFLGPGKTFCAHAPGAVEPLASAIKYFRSEFEAGIKGSGDNRKSIKGIQPNLLGERWLEHHHHHH”, for which the protein production entry is on record as “not failed”.

Turning to “MSLQFNPIGLFLVALILLGVLGNNNSITISATLLLLMQQTALNKYIPMLEKYGLTIGIIILTIGVLSPIVSGKINLPNLSEILSWKMALAISIGIFVAWLGGRGINLMATQPLIITGLLIGTIIGIAFFGGIPVGPLIAAGIMSLLVGKL”, the protein production entry was “failed”.

On to “MSLQLINLNSDLKRLRDEGYFIQVKNGFLIMRDVPYVNSNRHVCRGTIISSLSLAGDRTRIPDTHVVHFDGDMPCNAEGEALNAVVLQSSIFDLGRGITAKHMFSSKPKSGYTDYYHKMTTYASILSGHAEVLNSGISPKVFSTPEDEEDSVFNYTETASGRVGIGALSDLLTEE”, for which the protein production entry is reported as “failed”.

As to “MSLQLRLALNQIDSTVGDIAGNAEAILRWTRHSAEQGAHLVAFPEMALTGYPVEDLALRSSFVEASRTALRELAARLAEEGFGELPVLVGYLDRSESAQPKYGQPAGAPRNAAAVLHRGRVALTFAKHHLPNYGVFDEFRYFVPGDTMPIVRLHGVDIALAICEDLWQDGGRVPAARSAGAGLLLSVNASPYERDKDDTRLELVRKRAQEAGCTTAYLAMIGGQDELVFDGDSIVVDRDGEVVARAPQFSEGCVVLDLDLPAAEAEPPTGVVDDGLRIDRLVISEEPLPAYEAELAGGYADRLDADEEVYSALVVGLRAYVAKNGFRSVLIGLSGGIDSALVAAIACDALGAQNVYGVSMPSKYSSDHSKGDAAELARRTGLNFRTVSIEPMFDAYMASLGLTGLAEENLQSRLRGTTLMAISNQEGHIVLAPGNKSELAVGYSTLYGDSVGAYGPIKDVYKTSIFRLAEWRNRAAAERGQTPPIPEASITKPPSAELRPGQVDTDSLPDYPVLDAILELYVDRDTGADAIVAAGYDRELVVKTLRMVDTAEYKRRQYPPGTKISAKGFGKDRRLPITNRWREGHHHHHH”, the protein production result is “not failed”.

With “MSLQTCVLHRLSLPLKFPMRTAHGHIREKQAILVQLVDADGIEGWSECVALAEPTYTEECTDTAWVMLVHHLVPRFARWLRAASQDQDVDPRTVCEALRDVRGNRMSVAAIEMAVWDWYAARTGQPLVGLLGGGRDRVEVSATLGMSESLDVLIQSVDAAVEQGFRRVKLKIAPGRDRAAIKAVRLRYPDLAIAADANGSYRPEDAPVLRQLDAYDLQFIEQPLPEDDWFDLAKLQASLRTPVCLDESVRSVRELKLTARLGAARVLNVKPGRLGGFGATLRALDVAGEAGMAAWVGGMYETGVGRVHGLIAAALPLMRYATDLGPSDRYFEQDVLKEPIAFVEPGVIQVPQCAGVADWVDRDAVRRFSTATWSVDLRTLEGHHHHHH”, the protein production entry was “not failed”.
